Laboratory results taken from the RNAGym collection of RNA variant scans (doi:10.1073/pnas.2313332121).
Fewer inactive variants are shown than the library holds.

B1: TPR 5TU (parent)
chain: GGAUCUUCUCGAUCUAACAAAAAAGACAAAUCUGCCACAAAGCUUGAGAGCAUCUUCGGAUGCAGAGGCGGCAGCCUUCGGUGGCGCGAUAGCGCCAACGUUCUCAACUAUGACACGCAAAACGCGUGCUCCGUUGAAUGGAGUUUAUCAUG

Variants of: B1
Experiment: polymerase ribozyme fitness, log enrichment relative to wild type (log ratio); higher = more active; in vitro selection for triplet polymerase activity
Method in brief: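 Genotype fitness is the logarithm of its enrichment divided by wild-type enrichment, using inverse-variance-weighted averages of replicates. That logarithm is base 2. Enrichment was measured by Illumina sequencing of input and output libraries from one triplicate in vitro selection round, with frozen incubation at −7 °C, on PCR-built, transcribed mutant libraries of each subunit of a heterodimeric triplet polymerase ribozyme, retaining genotypes with ≥10 input reads and ≥1 read per output.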

Compared with C54G G58C A122G G124U, C54G is higher in “polymerase ribozyme fitness (log ratio)” value: -2.2 for the first, -1.45 for the second.

Going from C54A to C54U, the “polymerase ribozyme fitness (log ratio)” value rises from -1.06 to -0.314.

First: C54U G70A G83A U90A G143U
Second: C54U C87U G92C
The “polymerase ribozyme fitness (log ratio)” value of the first is lower: no more than -4.2 for the first, -0.365 for the second.

C54G C103G and U53G G62C C85U U109C cannot be ordered by “polymerase ribozyme fitness (log ratio)” value: no more than -4.2 for the first, no more than -4.2 for the second.

First: C54G C96A
Second: C54G C96U
The “polymerase ribozyme fitness (log ratio)” value of the first is lower: -2.41 for the first, -1.33 for the second.

First: U53G A113U
Second: C54A C87A
The “polymerase ribozyme fitness (log ratio)” value of the first is higher: -3.16 for the first, -4.19 for the second.

First: C54A C87U
Second: C54U A73G
The “polymerase ribozyme fitness (log ratio)” value of the first is lower: -3.48 for the first, -0.166 for the second.

First: C54U G81U G83U G152U
Second: C54U A91U U102G
The “polymerase ribozyme fitness (log ratio)” value of the first is higher: -4.17 for the first, no more than -4.2 for the second.

C54U C114A A137U and C54A G94U C123G C125A U134C are within 0.2 log units of each other in “polymerase ribozyme fitness (log ratio)” value: -3.59 for the first, -3.75 for the second.

C54U C57U C79A C85U C93G A107G C123G and C54A C63G C69G C76G U82C C131G cannot be ordered by “polymerase ribozyme fitness (log ratio)” value: no more than -4.2 for the first, no more than -4.2 for the second.

Compared with C54U C85G C87G, C54A U104A C131U is higher in “polymerase ribozyme fitness (log ratio)” value: no more than -4.2 for the first, -2.14 for the second.

U53C U78G U127C U148C and C54G C72U U82A U90G G141C cannot be ordered by “polymerase ribozyme fitness (log ratio)” value: no more than -4.2 for the first, no more than -4.2 for the second.

First: C54U C57A
Second: C54A U55A C103G
The “polymerase ribozyme fitness (log ratio)” value of the first is higher: -0.253 for the first, no more than -4.2 for the second.

Compared with C54U C75G U78C C79A G80U, C54G G86A A120U is higher in “polymerase ribozyme fitness (log ratio)” value: no more than -4.2 for the first, -2.8 for the second.

First: C54U A91G G128U C131U
Second: C54G G83U C108U A115G G143A
The “polymerase ribozyme fitness (log ratio)” value of the first is higher: -3.53 for the first, no more than -4.2 for the second.

First: U53G G117C A137G
Second: C54U C95A G126U U148A
The “polymerase ribozyme fitness (log ratio)” value of the first is higher: -2.86 for the first, no more than -4.2 for the second.

Going from C54A A64G U111C G133U G140A G143A to C54U G59U G74A, the “polymerase ribozyme fitness (log ratio)” value rises from no more than -4.2 to -3.62.

Compared with C54U C79U G92U C95U G141C, C54A G59C G84A is higher in “polymerase ribozyme fitness (log ratio)” value: -3.77 for the first, -0.321 for the second.

Compared with C54G U55A C108G A122U, C54U G84A U146G is higher in “polymerase ribozyme fitness (log ratio)” value: no more than -4.2 for the first, -1.56 for the second.

First: U53C U56A A89U C93U G141U
Second: C54A U55A A106G G141A G143C C149G
The “polymerase ribozyme fitness (log ratio)” value of the first is higher: -1.74 for the first, no more than -4.2 for the second.

Going from C54A U55G G83A U102C C108G G126A to C54A C99U, the “polymerase ribozyme fitness (log ratio)” value rises from no more than -4.2 to -1.85.

U53G A60G C87A and C54G G65A C79U C85G A91U G136C cannot be ordered by “polymerase ribozyme fitness (log ratio)” value: no more than -4.2 for the first, no more than -4.2 for the second.

First: C54A G70U G94A
Second: C54U G84A A110U
The “polymerase ribozyme fitness (log ratio)” value of the first is higher: -4.02 for the first, no more than -4.2 for the second.

First: C54U G84A A97U
Second: C54U C76A
The “polymerase ribozyme fitness (log ratio)” value of the first is lower: -1.27 for the first, -0.561 for the second.

Going from U53A U56C G141U to C54U C75G G81C U127A, the “polymerase ribozyme fitness (log ratio)” value falls from -0.733 to no more than -4.2.

First: C54G U55A G94A C132U
Second: C54U C85U C95A
The “polymerase ribozyme fitness (log ratio)” value of the first is lower: no more than -4.2 for the first, -1.84 for the second.

Going from C54G U55A A89U C118G A142C to U53A U144C U145G, the “polymerase ribozyme fitness (log ratio)” value rises from -3.87 to -1.92.

Compared with C54A C57U G59U, C54A G67U is lower in “polymerase ribozyme fitness (log ratio)” value: -0.27 for the first, -4 for the second.

Compared with C54A U144G, U53G A113C G133A is lower in “polymerase ribozyme fitness (log ratio)” value: -0.801 for the first, no more than -4.2 for the second.

First: C54A G94U A97C C125G
Second: C54U C63G G67C G143A
The “polymerase ribozyme fitness (log ratio)” value of the first is higher: -2.89 for the first, no more than -4.2 for the second.

Going from U53A U130G A142C to U53C A64G U90C G117C, the “polymerase ribozyme fitness (log ratio)” value falls from -0.549 to no more than -4.2.

Going from C54G G92C A106G to C54U G65A C85U A89G U146G, the “polymerase ribozyme fitness (log ratio)” value falls from -2.99 to -4.13.

C54U G84C G100C C108A A113U G141U and C54G C87U A106U A137U G140U A142C cannot be ordered by “polymerase ribozyme fitness (log ratio)” value: no more than -4.2 for the first, no more than -4.2 for the second.

Going from C54G U55G to C54G G84U, the “polymerase ribozyme fitness (log ratio)” value rises from no more than -4.2 to -1.6.

Going from U53A U55A C57A C85G A122G to U53A G140C, the “polymerase ribozyme fitness (log ratio)” value falls from -2.51 to -3.65.

First: C54G U109C C116U C131U A147U
Second: C54U G84C C93U U144C
The “polymerase ribozyme fitness (log ratio)” value of the first is higher: -1.86 for the first, no more than -4.2 for the second.

Going from U53G C57G G70C C79G A89U A91U C93U to C54U C76U C93G A150G, the “polymerase ribozyme fitness (log ratio)” value rises from no more than -4.2 to -4.08.

Compared with C54A G136A, C54A C118A is lower in “polymerase ribozyme fitness (log ratio)” value: -0.852 for the first, -1.5 for the second.

Going from U53G C96G U144C to C54U G65U G81A C93U A97U, the “polymerase ribozyme fitness (log ratio)” value falls from -3.23 to no more than -4.2.

C54G C85U C96G G112C U130A A142G C149A and C54U G67U G86U C95A cannot be ordered by “polymerase ribozyme fitness (log ratio)” value: no more than -4.2 for the first, no more than -4.2 for the second.

Compared with C54G U82A, C54G U82G is higher in “polymerase ribozyme fitness (log ratio)” value: -1.98 for the first, -0.687 for the second.

Going from C54A C85U to U53G U56A G94C A115C C123G, the “polymerase ribozyme fitness (log ratio)” value falls from -1.86 to -3.89.
